Measurements published in the DeepSol protein solubility set.

Assay: soluble on expression in E. coli; label from the status in PepcDB or PDB records

Sequence | soluble on expression in E. coli
ICFSKIFNTQYLSDIRYIDLNQNIDTIKSNFKKGLRYNIKKSKNEGCDLKIIENPSSEDIDHFMECYNSMLCRNESSEKYHFSKQFIMDHFKFIKTFLILAYYQKKVVGAGIFFKGETIMHYHLSGTLKLKGIYPNDLILWESIKKSKDLGLKYFFLGGGVIKDDSLFEYKSGFSK | not soluble
MTTMTNSLISNSVSSVPESLFSSASIHRPVAINPAMLAQFSINLPVLPFESSASLGTSTTSSSRCSSTESSAAPGKIRRGRPQQEIADGQDAHSQKKRHRRLYARQYRAQMRQKVENVKSLHDEKEQLELEVKALRQAVSGLQQENAQKDFLISILQLNNQINHS | not soluble
MSIEVRDCNGALLADGDNVSLIKDLKLKGSSTVLKRGTMIRGIRLTDSEDEIEGRTDKIKGLVLRTEFLKKAGS | soluble
MGSDKIHHHHHHMKSHIGLIGLAVMGQNLALNIARKGYKVSVYNRTAQRTEEFVKNRVTNEEIEPHYDIESFVKSLERPRKIILMVKAGKPVDDTISQLLPHLEPGDLIIDGGNSHYMDTERRFKELSEKGILFLGMGVSGGEYGALHGPSLMPGGSREAYNLVEEILLEIAAKTEDGPCCTYVGERSAGHFVKMVHNGIEYAIMQAIAEVYHIMRDVLSLSSEEMSSIFEEWNRGELSSFLVEITYKILRKKDEETGKPMVDVILDKAEQKGTGKWTSQAALDLGIPTPSINLAVVERVISHFKDIRTRLSKLYNKRRSATQGSEEFLRDLRNSLFFAMFMAFSQGMWLIAEASKEFGYGVSLSEVLRIWKGGCIIRAKLIDTLRRYISNENAYLLENEEVMNLLKGKIDSLKNILKASIENEIPVPVLSSSYNYFMSLTEERLPANLIQAQRDFFGAHTFERVDREGVFHINWEEGEIG | not soluble
MTETDKKQEQENHAECEDKPKPCCVCKPEKEERDTCILFNGQDSEKCKEFIEKYKECMKGYGFEVPSAN | soluble
MSTYSSPFSRLLHPFSSPPLRPHQDSTTRQTVFIYSSPPVNSSMATDNVRLERMEIGMQLLLLRMAEKDGEAEKLARAELITEANLGGQGETTQLNPLVPVSKATAEKLSNELDEVGRNRTARWSKSGRTCVVS | not soluble
MCFFLLCFLDSFRNRDTTQSDTDVIYPRDDPRASRSHQNFGFMDPPPRYEQIFKRGGGTPSVITTREAPSVTRSTGDGSLPPSYEQAALNARRESRPQLPQGTLREVPLTAIDMEHPAMSTPSSTVLDMESEITNITNHAQACVHRYDASHANEVTRTAVAVTTESPAPAQSTSNALPELEAPEGGPPGYDTISLHNETVSTR | not soluble
MSLTVRLRPHHLLCMLTYIGKGYTSGFVENYDRVAFRLNAGEDIELVEGADDVCEGLLCESHAHCFNDGIVQRDETARLSVSTLLGETLIAGKRLRVTPDFLAKMRLAFAAGDIRQACRGCQWIKLCDRIAASGFAGVKIGVPSQVVPKDATRHPMLRPKYGPSGRKLEGHHHHHH | not soluble
AHHHHHHASAKWVCKICGYIYDEDAGDPDNGISPGTKFEELPDDWVCPICGAPKSEFEKLEDGSNPMPRKISFDPPSFIQLTRKQNKELLEFVLAEFEIYLPITTVHAYLLAKAFKGKNPKEEVQKLRDIVKIVDLTDELLGEIAEIDASLIKDGYFFTLEDLITAVSAITSKSLLVVNGNAEKYSPLRKYGLDCVNYEKFLEEVEVLAREEAKREKII | soluble
MSLLNSVSAIFLATAMTFAALPQDAQAQDYRFNTVQVDGNQRIETSTIISRMGIERGKTISAGALNDAYQRLLDSGVFETVELIPRGNTLVVKVVEHPTINRINFEGNRRVKDETLEGAIGSQSRRVFTPEQAERDAATIAEIYSTQGRVAATVVPRIIRRSDNRVDLVFEISEGDTIEIERVSFVGNRVFSDRRLRRILETKQAGFLRTFIRSDTFIADRIEFDKQVLRDFYLSRGHVDFRVNSANVEFTRERDAFFLVMDVTEGQQFSFGKITTVSEIPGVEAPAYQDVLKIKPGVVYSPSLVENSIARMERLGLKNGVDFLRVEPRITRNDRDLTLDIEFALVKGPRIFVERIDIEGNTTTLDQVIRRQFRTVEGDPFNPREIRESAERIRALGFFGDANVETREGSTPAQVIVDVDVEEKPTGSLSFGGSYSVSDGFGVAIGLTEDNWLGRGQRLGLTLSTAQDAEQYVLSFTEPQLLGRDLRFDIDLGVANTNSSFASYDTERAFFAPGITFRLGELSTLQLRYRWEASEMVQRTATTVSGAVIASEIAQGKKSSSALGLTYTYDSRIGGLNPNAGVLFEVGVDAAGLGGDNEYFKTSAKAIAQTRVWHEEITLRASLDVGAFTWQGSGFSRAIDRFVIGPNTFRGFEPAGVGPRDQSNGVDDAIGGNYYAVARFEAEFPLGLPEELGLRGGLFYDVGNVWDVSDVNTAGGTIVGADGSFRHVIGFSLLWTTAFGPLRFNFSKALKKETFDKEQSFDLTIQAREGHHHHHH | not soluble
MTSFNSFMRPLAAAILSALVTLAPVAPQAQEAVRGAVTNLPIPRFVSMKANEGNVRRGPSLTHRIDWVFKRRDMPLQITAEHGHWRKVQDRDGAGGWVHYALLSGVRTVLVEKDMMPLYARPDPASQVAAHFEMGVVARLGTCTQDWCRISAGGYRGWAPKENLWGVGTDEIRELEHHHHHH | not soluble
PDVRRDKPVTGEQIEVFANKLGEQWKILAPYLEMKDSEIRQIECDSEDMKMRAKQLLVAWQDQEGVHATPENLINALNKSGLSDLAESLTNDNETNS | soluble
SNAMQKSVLEQLKQVTMVVADTGDFELIKKYKPVDATTNPSLILKAVKEQKYSNLVAETISKVKANNPDLNSDDLVKEIAIEILVSFGIKILDVIEGKVSSEVDARVSFNSATTIDYAKRIIARYESNGIPKDRVLIKIAATWEGIKAAKLLQKEGINCNLTLIFDKAQAKACAEAGVYLVSPFVGRITDWQMQQNNLKTFPAIADDDGVNSVKAIYKLYKSHGFKTIVMGASFRNVEQVIALAGCDALTISPVLLEELKNRDEHLEVKLTKNDDVVTQSPQISEADFRWLMNENAMATHKLAEGIRLFTKDTIELENIIKQNL | soluble
MGSDKIHHHHHHMSTLPHLGFQVYQPCAPLLPYVRCYWQITRIAAPETRSTEFMHPEGGTGIIFNFGAPMHFDGWQHRAQCLVTGPTKQSTRLELSGRVDALGIRFWPGAGRAFLKTPLSEMLGQTLTPADLSLALLSDELAERLAVLPTAPERIALLETRLLHYLTAHGSQTQTTEPSMKYALNWIAEQKGQGEIRNLLTEIDISQRQLERLFQQNLGMSPKNYSILQRTGFARELLKSDTDSPLTDIGYQAGFYDQAHFIREFKQVIGITPGQFRSKALLRR | not soluble
MDIRKFFGVIPSGKKLVSETVKKNEKTKSDEETLKAKKGIKEIKVNSSRKEDDFKQKQPSKKKRIIYDSDSESEETLQVKNAKKPPEKLPVSSKPGKISRQDPVTYISETDEEDDFMCKKAASKSKENGRSTNSHLGTSNMKKNEENTKTKNKPLSPIKLTPTSVLDYFGTGSVQRSNKKMVASKRKELSQNTDESGLNDEAIAKQLQLDEDAELERQLHEDEEFARTLAMLDEEPKTKKARKDTEAGETFSSVQANLSKAEKHKYPHKVKTAQVSDERKSYSPRKQSKYESSKESQQHSKSSADKIGEVSSPKASSKLAIMKRKEESSYKEIEPVASKRKENAIKLKGETKTPKKTKSSPAKKESVSPEDSEKKRTNYQAYRSYLNREGPKALGSKEIPKGAENCLEGLIFVITGVLESIERDEAKSLIERYGGKVTGNVSKKTNYLVMGRDSGQSKSDKAAALGTKIIDEDGLLNLIRTMPGKKSKYEIAVETEMKKESKLERTPQKNVQGKRKISPSKKESESKKSRPTSKRDSLAKTIKKETDVFWKSLDFKEQVAEETSGDSKARNLADDSSENKVENLLWVDKYKPTSLKTIIGQQGDQSCANKLLRWLRNWQKSSSEDKKHAKFGKFSGKDDGSSFKAALLSGPPGVGKTTTASLVCQELGYSYVELNASDTRSKSSLKAIVAESLNNTSIKGFYSNGAASSVSTKHALIMDEVDGMAGNEDRGGIQELIGLIKHTKIPIICMCNDRNHPKIRSLVHYCFDLRFQRPRVEQIKGAMMSIAFKEGLKIPPPAMNEIILGANQDIRQVLHNLSMWCARSKALTYDQAKADSHRAKKDIKMGPFDVARKVFAAGEETAHMSLVDKSDLFFHDYSIAPLFVQENYIHVKPVAAGGDMKKHLMLLSRAADSICDGDLVDSQIRSKQNWSLLPAQAIYASVLPGELMRGYMTQFPTFPSWLGKHSSTGKHDRIVQDLALHMSLRTYSSKRTVNMDYLSLLRDALVQPLTSQGVDGVQDVVALMDTYYLMKEDFENIMEISSWGGKPSPFSKLDPKVKAAFTRAYNKEAHLTPYSLQAIKASRHSTSPSLDSEYNEELNEDDSQSDEKDQDAIETDAMIKKKTKSSKPSKPEKDKEPRKGKGKSSKK | soluble
MADNLSDTLKKLKITAVDKTEDSLEGCLDCLLQALAQNNTETSEKIQASGILQLFATLLTPQSSCKAKVANIIAEVAKNEFMRIPCVDAGLISPLVQLLNSKDQEVLLQTGRALGNICYDSHEGRSAVDQAGGAQIVIDHLRSLCSITDPANEKLLTVFCGMLMNYSNENDSLQAQLINMGVIPTLVKLLGIHCQNAALTEMCLVAFGNLAELESSKEQFASTNIAEELVKLFKKQIEHDKREMIFEVLAPLAENDAIKLQLVEAGLVECLLEIVQQKVDSDKEDDITELKTGSDLMVLLLLGDESMQKLFEGGKGSVFQRVLSWIPSNNHQLQLAGALAIANFARNDANCIHMVDNGIVEKLMDLLDRHVEDGNVTVQHAALSALRNLAIPVINKAKMLSAGVTEAVLKFLKSEMPPVQFKLLGTLRMLIDAQEAAEQLGKNVKLVERLVEWCEAKDHAGVMGESNRLLSALIRHSKSKDVIKTIVQSGGIKHLVTMATSEHVIMQNEALVALALIAALELGTAEKDLESAKLVQILHRLLADERSAPEIKYNSMVLICALMGSECLHKEVQDLAFLDVVSKLRSHENKSVAQQASLTEQRLTVES | not soluble
MEKVMIELEEQVNQLINQILLKAENQYELLIGQCRSKVKLTNTQEHILMLLSEGQKTNSELAKALNVSQAAVTKAVKTLVKEGMLEGKKDKDDGRVTYFVLTQEAQPIAQEHKEHHQETLGVYRSVLDQFDHQERQVIGRFLIKLAEKIEE | not soluble
MSDDIFRLATVEDASELLKLVNSAFQPIRQLDIDWPSTRADIQMVSENIEHHSAIVLERDGKLISTITIRFPWESETPPSKYPFVWWFATLPEYKGQGAGSKLLTYVEEKVLRDMLKAPALTLGTSARKHPWLADMYRRRGYEVYFEQEKDGDIGVMMHKVLIPERFNPTLLGAPSWA | soluble
MAHHHHHHMKYMPQRPCIGICQGCWTVQLGGVNQYIQIWRYENLKHRYDCRKQVEQDQEWLRTYVKPADDMMISKSNTLLRLVYREGNASTQSYKYLMQVSPHKEVELSGPSATLAATFQVIVGEEEGKYIHLVKGHKLDDVIPVTPTLGCSSKIMGPVRWSSTMNCLWR | not soluble
MSLKFIEKMLPEESPIDLLINLSRRGEAAVVLLKDAIEDYFTGKFGEGHLNRVISLERESDEIKSKLKKMYLKMKYTYFEKDDFLYIVHKADEILDVVRDIVIMLDMNRVEDVPENIKELFAELVENVLDTIRETTEAIEQLRTLAESGFSPFEKEKEEREIFDVSMEEREVDTISRNLGKKLYSLKNSMNPVDLIFLNKVARLISKIADQGKDITKRINSILREGHHHHHH | soluble
MKPYLEEKLEGARKSVPGFALEELKQKIISSPIQFGKSDIDDLVSNLLKRYEQTKENSLIGKIDSIFKEISDIEKVMSAKQPEPAQQQAPVEKPKKKAKLEVIGDDVVSIMVSLRWLEFLLDNYGPENTLDVLDYYESLGWISATVKEQMMKYAKMTGVMNPAQEYKIKPSIQDHIINMLFIEKLRGEEINRDLIEALEREFRTIRKGVDELYGI | soluble
